Test: soluble on expression in E. coli; label from the status in PepcDB or PDB records

Sequence | soluble on expression in E. coli
MAHHHHHHMGLMLPKPILSKVVDRAGNSFVNAACASQNGFRNSMEDAHMLVATDDADVAYFGIFDGHSNAECSAYVARELPQRLKKLPESITAEMLEKVCIEVDEAYMKTSTEGGTTGTFCVIRKDLTVTIANVGDSRILVCRGGKLIFATEDHKPYIPGETERIVACGGSVVSNRVDGDLAVSRAFGDASFKVKGTKDYRMQKVIAVPDVSVLQCEPNDFIILACDGVFEGNFSNEDVCQFVWEQQQNCWDDLAVVACRVCDEAIRCGSKDNISCLVVQLAEGASRVKAFGATSFVPGPPFPRNQQPCRAAYAQMAELGHTTTAAALQTRYQLLQAFSKNKLNSQPPVMRTAFEMSDEVDVETEWSFFGKGPAPGNEKNFFEALANTGNSS | soluble
MGSDKIHHHHHHMIEELAREIVKRFPRNHKETDPFRVLISTVLSQRTRDENTEKASKKLFEVYRTPQELAKAKPEDLYDLIKESGMYRQKAERIVEISRILVEKYGGRVPDSLEELLKLPGVGRKTANIVLWVGFKKPALAVDTHVHRISNRLGWVKTRTPEETEEALKKLLPEDLWGPINGSMVEFGRRICKPQNPLCEECFLKNHCEFYRRRGKGEVRNRTER | not soluble
MNKKDFLDFLNQNILILDGATGTELQKRGMPGGVCPEMWVIENPDVIMDIQKDYINAGSNAVYTCTFGGNRIKLSEFGLGDKVVEINKKLAQLSRKAAGEKGLVAGDLAPTGRFVRPFGDMPFEEAVDVYKEQVKGLLEGGVDFFVIETMMDIQEARAALLAVKESCDLPVCVSMTFDESGRTLTGTDSVSALIILQSLGADVVGCNCSTGPQDMIKIIREMKPYAKVPLLAKPNAGLPKLIDGKTRFDMEPEEFGSYIKEFVEAGVNLLGGCCGTSPVYIEQIRKNIEGLKPIPPQPKEICAVASARKTVFVDANEPVVVVGERINPTGKKKLQEELRQGMTSLVRQFAVEQVEKGADILDVNVGMPGIDEKETMVKVVELLSSITDAPLCLDSSSPEVLEAALRIYPGRALINSISAEKVKIEKLLPIAAKYGAAFILLPLGDAGVPKSAGERCKIVEEVFNEASKWGYTKKDVIVDGLVMTVSADQEAAVETLKVIEWCTQSFGCGTIVGLSNVSFGMPERAWINSAFLAMAIGYGLTMAILNPSSDTLMSIKMASDVLKVKDRNSKKYIEHFAALKSDKPQVVEKKDTASPVEKVYDAVVKGDRENIRKYIDDALKDGTEPSIIVDKYLIPAITHVGDLYDRKEYFLPQLIQSAETMKEAFGILEPLLKKEPVDEKGNKVKVILATVKGDIHDIGKNIVGLMLRNYGFEVYDLGKDVSAEEIVKKAKETNAPIIGLSALMTTTMLEMREVVSLVRQEGLNAKIMIGGAVVNADYAKEIGADGYSEDAYGAVKLASKLAGI | soluble
EGKTSSASPNNPQELKRRVIEEGFRRAGIEFGGLKGNSLEALRQFGDPMMATVVGLSLGFKGDVVLAGGTQMLAVAAILKGLGEDLSRFMIATTRWVVEDKSATFIKTAREIGIISYAADLDFSKSEFKGLRDYEKGYVKEGVGAGGATWLAV | not soluble
MRIALFTETFLPKIDGIVTRLCQTVRHLQRNGHQVLVVAPDGGLDHYEGARIYGVSGFPLPLYPELKLALPRPAIGKALAAFEPDLIHVANPAVLGLAGLYYAQKFQLPLVASYHTHLPQYLKYYGLGFLEELLWFLLRWGHNCAQLNLCTSTAMVAELKAHGIRHLDLWQRGVDVELFHPQRQSQEMRHFLSQGHPEAPLLLYVGRLSAEKEIEQIKPILEQIPQARLALVGNGPHREALEKHFAGTPTHFVGYLRGERLAGAFASADVFIFPSRTETLGLVLLEAMAAGCPVVAANSGGIPDIVTDGVNGFLFDPADPTGAITACQRLFDSPDDRETLRQNARQEAERWSWAAATQQLEQYYRSVLPVPQRDVALSHLEHHHHHH | not soluble
MGSDKIHHHHHHACTGLLVGKKASTDGSVMISYAADSHSLYGEMYRWPAATWPKGAMLEVKEWDTGKPLGKIAQVENTYSVVGNMNEHQVAITESTFGGRHELVDTTGIMDYGSLIYIALQRSKSAREAIKVMTDLVKEYGYYSSGETFSIADKNEAWVMEMIGKGPGNKGAVWVAIRIPDDCISAHANQSRIQQIPFDDKENCIYSPDVVSFAREKGYFKGKDADFSFAKAYCPYDFSALRGCEARVWSFFRKYDTTMDQYTDFIKGDPSKEPMPLYVKPNRKLSVQDVQNGMRDHYEGTDLDMTKDAGAGSYKVPYRWRPMTFEVDGQEYTNERAIATQQTGFVIVPQMRNWLPDAIGGILWFAVDDADMAVFTPVYASVTDVPECYRVGNGDLLNFSWTSAFWIHNWVANMAYHKYSFMIQDIRKVQQELENGYQETVPAIDKAAQELYAKDPAETVKFLTWYSTTNSDSATARWKQLGEYLLVKYIDGNVKKEVNGQFKRNPYGQPASPDFPGYDEDYYRSIVKSAGDRLKVK | not soluble
GPGSMPAIVKQLPSSDDDNDQASLSPAKQYAQLGEESSPAGASRAELSNAEAGAEAEGLAQPQKTDASGAERVVDVEECSRLKAAGNELFKDGNISEALTLYRKALWCAPLKPVRPHHPATGESSGLPTPPNGSAPAASSHTATQRDETEVEQQPEDKTDYTLTAQVYCNAGFCLMKLDVKEEAAHMLSEAIRHDDSYLKAYIRRADCYYMMQKWSSAYGDYESYEKLGGVLDAQGCTRKAASKAKVDEEMQKMLGELKSLGNKILGNFGLSTDNFKFDKDPNTGGYSMRFER | soluble
MASWSHPQFEKGALEDPRSLYDLPPYGDATLLYFSDLHGQAFPHYFMEPPNLIAPKPLMGRPGYLTGEAILRYYGVERGTPLAYLLSYVDFVELARTFGPIGGMGALTALIRDQKARVEAEGGKALVLDGGDTWTNSGLSLLTRGEAVVRWQNLVGVDHMVSHWEWTLGRERVEELLGLFRGEFLSYNIVDDLFGDPLFPAYRIHRVGPYALAVVGASYPYVKVSHPESFTEGLSFALDERRLQEAVDKARAEGANAVVLLSHNGMQLDAALAERIRGIDLILSGHTHDLTPRPWRVGKTWIVAGSAAGKALMRVDLKLWKGGIANLRVRVLPVLAEHLPKAEDVEAFLKAQLAPHQDHLFTPLAVSETLLYKRDTLYSTWDQLVGEAVKAIYPEVEVVFSPAVRWGTTILPGQAITWDHLYAYTGFTYPELYLFYLRGAQIKAVLEDIASNVFTSDPFYQQGGDVSRVFGLRYVLDPDAPTGERVREVEVGGRPLDPNRRYLAAAYGGRLQRVGEAKPGYEPRPIYEVLAEYLRSVGRVRVRPEPNVKVIGRNYRLPEVTG | soluble
MILAILQARMSSTRLPGKVLMPLQRQPMIVRQIERVARSKRIDKLVVATSDRPEDDAIEAAVRREGIAVFRGSLDNVQQRFIGALDAHPADHVVRLTADCPLADPTLIDATIDLCLSKGADYVSNTPEGHAHPKGTDVEVMTAAALRRAAAEATTKEAFEHVTWDLWNQPQRWTCAWLPCFPDQGAVRWTVDRPDDYAFVAAVYDALYPANRAFTSDDIRAFVAGRPDLQDYGGDRRALEHHHHHH | not soluble
MPLTSVTPLCITWNGEKLVAAGYDSTILTAVPKDIVKVKVNDRPIVFDVAPIIGEGRTLVPLRHIFEALGAEVKWDASTRTVTGIKGSDKIILKIDSKEALVNGETKELDVPATIVNGRTLVPVRSISESLGAEVSWDDNSKTVIIKTNF | not soluble
MSLVTIKDIARNLGISYSTVSRCLNNNPNVSEKTKKKVVEEANRLGFHFNVNARNLAKKETNRIGVIFSNNFNHQDTRKFFSDIMDSSINSIETNKYDFIIQPNNNISGDSNVYKMVNGQMVDGLVIVSQSIKKEEYDFLKDNNFPHVFIYFKPSFIGEVDNFFWDDNVYGGYIATKHLIDHGHKDIITVTSDDKSSKMHEDRTKGYLNAMEEANLKTEVIKSKMDFESQVEFLEKYIDKIKKASAIFVQQDVPAISIIQELKTTYGINVPEDISIIGYNNIELISYFRSHLSTIDDPREQVIKNGVDSLVNIINKKSTEHIPRKLYPRLIIRNSVKRIKEGHHHHHH | soluble
GTGRSRLLEDFRNNRFPNLQLRDLIGHIVEFSQDQHGSRFIQQKLERATPAERQIVFNEILQAAYQLMTDVFGNYVIQKFFEFGSLDQKLALATRIRGHVLPLALQMYGCRVIQKALESISSDQQSEMVKELDGHVLKCVKDQNGNHVVQKCIECVQPQSLQFIIDAFKGQVFVLSTHPYGCRVIQRILEHCTAEQTLPILEELHQHTEQLVQDQYGNYVIQHVLEHGRPEDKSKIVSEIRGKVLALSQHKFASNVVEKCVTHASRAERALLIDEVCCQNDGPHSALYTMMKDQYANYVVQKMIDMAEPAQRKIIMHKIRPHITTLRKYTYGKHILAKLEKYYLKNSPDLG | soluble

Reference: the DeepSol protein solubility set
